According to patent EP0638644A1 (F. HOFFMANN-LA ROCHE AG, dated 1995):

Assays:
[1] = target: T1, natural human IL-12 receptor on IL-12R positive human cells (human, UniProt P42701 24-662); test: steady state 125I-IL-12 binding to K6 cells, Scatchard, site 1 of 3
T1 construct: whole, on cells; IL-12 sees up to 3 classes of sites on these cells; also called natural IL-12R

[2] = target: T1, natural human IL-12 receptor on IL-12R …; test: steady state 125I-IL-12 binding to K6 cells, Scatchard, site 2 of 3
[3] = target: T1, natural human IL-12 receptor on IL-12R …; test: steady state 125I-IL-12 binding to K6 cells, Scatchard, site 3 of 3
[4] = target: T1, natural human IL-12 receptor on IL-12R …; test: steady state 125I-IL-12 binding to YT cells, Scatchard, site 1 of 2
[5] = target: T1, natural human IL-12 receptor on IL-12R …; test: steady state 125I-IL-12 binding to YT cells, Scatchard, site 2 of 2
[6] = target: T1, natural human IL-12 receptor on IL-12R …; test: steady state 125I-IL-12 binding to Kit-225 cells, Scatchard, site 1 of 3
[7] = target: T1, natural human IL-12 receptor on IL-12R …; test: steady state 125I-IL-12 binding to Kit-225 cells, Scatchard, site 2 of 3
[8] = target: T1, natural human IL-12 receptor on IL-12R …; test: steady state 125I-IL-12 binding to Kit-225 cells, Scatchard, site 3 of 3
[9] = target: T2, human IL-12 receptor subunit stably expressed on murine CTLL cells (human); test: IL-12 binding to murine CTLL cells stably expressing the IL-12 receptor subunit
T2 construct: CTLL transfectants express only receptor subunit monomers; also called CTLL transfectant; CTLL cell transfectant

[10] = target: T1, natural human IL-12 receptor on IL-12R …; test: steady state 125I-IL-12 binding to PHA-PBMC (5-7 days), Scatchard, site 1 of 3
[11] = target: T1, natural human IL-12 receptor on IL-12R …; test: steady state 125I-IL-12 binding to PHA-PBMC (5-7 days), Scatchard, site 2 of 3
[12] = target: T1, natural human IL-12 receptor on IL-12R …; test: steady state 125I-IL-12 binding to PHA-PBMC (5-7 days), Scatchard, site 3 of 3
[13] = target: T3, recombinant human IL-12 receptor (clone No. 5, SEQ ID NO:2) expressed in COS cells (human); test: steady state binding of 125I-IL-12 to COS cells expressing rIL-12R, Scatchard (Figure 4A)
T3 construct: 662 amino acid precursor; signal peptide cleavage is only predicted (after Gln20, Ala23 or Cys24); On COS cells present as monomers and disulfide-bonded dimers/oligomers; also called rIL-12R; human rIL-12R

[14] = target: T3, recombinant human IL-12 receptor (clone …); test: equilibrium binding of labelled human IL-12 to COS cells expressing clone 5, Scatchard, single site (Figure 19A)
[15] = target: T4, detergent solubilized IL-12R from IL-12R positive human cells (human, UniProt P42701 24-662); test: steady state binding of 125I-IL-12 to IL-12R immunoprecipitated by immobilized 2-4E6 from detergent extract of K6 cells, Scatchard
T4 construct: Whole natural receptor protein in detergent extract, not a truncated soluble form; also called soluble IL-12R; approximately 90 kDa protein

B1: Recombinant human IL-12 (ligand)
chain 1: RNLPVATPDPGMFPCLHHSQNLLRAVSNMLQKARQTLEFYPCTSEEIDHEDITKDKTSTVEACLPLELTKNESCLNSRETSFITNGSCLASRKTSFMMALCLSSIYEDLKMYQVEFKTMNAKLLMDPKRQIFLDQNMLAVIDELMQALNFNSETVPQKSSLEEPDFYKTKIKLCILLHAFRIRAVTIDRVMSYLNAS
chain 2: IWELKKDVYVVELDWYPDAPGEMVVLTCDTPEEDGITWTLDQSSEVLGSGKTLTIQVKEFGDAGQYTCHKGGEVLSHSLLLLHKKEDGIWSTDILKDQKEPKNKTFLRCEAKNYSGRFTCWWLTTISTDLTFSVKSSRGSSDPQGVTCGAATLSAERVRGDNKEYEYSVECQEDSACPAAEESLPIEVMVDAVHKLKYENYTSSFFIRDIIKPDPPKNLQLKPLKNSRQVEVSWEYPDTWSTPHSYFSLTFCVQVQGKSKREKKDRVFTDKTSATVICRKNASISVRAQDRYYSSSWSEWASVPCS
modifications: ¹²⁵I label (Iodogen method) where used as tracer
notes: 75-KDa heterodimer of p35 and p40; also called HuIL-12; HUIL-12
Question: What does the source list for B1?
Answer: Kd [1]: 0.016 nM; Kd [2]: 0.057 nM; Kd [3]: 2.4 nM; Kd [4]: 0.006 nM; Kd [5]: 0.109 nM; Kd [6]: 0.023 nM; Kd [7]: 0.21 nM; Kd [8]: 2.36 nM; Kd [9]: ≥ 50 nM; Kd [10]: 0.018 nM; Kd [11]: 0.084 nM; Kd [12]: 1.8 nM; Kd [13]: 2 to 6 nM; Kd [14]: 3.4 nM; Kd [15]: 0.188 nM
